This note sets out measurements from US20260184815A1 (published 2026).

First the molecules themselves.
B1: M11-A10 (Fab, V domains shown)
VH: EVQLLESGGGLVQPGGSLRLSCAASGFTFSNYWMMWVRQAPGKGLEWVSGIGSSGGFTSYADSVKGRFTISRDNSKNTLYLQMNSLRAEDTAVYYCAKGSYSDYGVFESWGQGTLVTVSS
VL: DIQMTQSPSSLSASVGDRVAITCRASQSIDTYLNWYQQKPGKAPKLLIYDASNLEIGVPSRFSGSGSGTDFTFIINSLQPEDVATYYCQHYLYAPYSFGQGTKLEIK
notes: HC as printed runs into CH1; also called Ml1-A10
B2: M10-B09 (Fab, V domains shown)
VH: EVQLLESGGGLVQPGGSLRLSCAASGFTFSWYEMSWVRQAPGKGLEWVSRIWPSGGVTMYADSVKGRFTISRDNSKNTLYLQMNSLRAEDTAVYYCTRTSITTVGMDVWGQGTTVTVSS
VL: DIQMTQSPSSLSASVGDGVTITCRASQSISTYLNWYQQRPGKAPKLLIYGASSLQSGVPSRFSGSGSGTDFTLTISSLQREDFATYYCQQSFSTPWTFGQGTRVEIK
notes: HC as printed runs into CH1; HC amber q (LqMNS) written as Q
B3: M12-E06 (Fab, V domains shown)
VH: EVQLLESGGGLVQPGGSLRLSCAASGFTFSQYKMLWVRQAPGKGLEWVSGIGPSGGLTAYADSVKGRFTISRDNSKNTLYLQMNSLRAEDTAVYYCARAPWFGELGMDVWGQGTTVTVSS
VL: DIQMTQSPSSLSASVGDRVSITCRASQSISTYLNWYQHKPGKAPTLLIYGAFSLQSGVPSRFSGSGSGTDFALTISSLQPEDFATYYCQQSHSTPPTFGQGTRVEIK
notes: HC as printed runs into CH1
B4: M12-C10 (Fab, V domains shown)
VH: EVQLLESGGGLVQPGGSLRLSCAASGFTFSDYEMHWVRQAPGKGLEWVSGISPSGGKTQYADSVKGRFTISRDNSKNTLYLQMNSLRAEDTAVYYCARDLKWGGRGSPDWYFDLWGRGTLVTVSS
VL: QSALTQPPSVSVSPGQTASITCSGDKLGEKYVSWYQQKPGQSPVVVIYQDNKRPSGIPERFSGSNSGNTATLTISGTQAVDEADYYCQAWDSYTVVFGGGSKLTVLG
notes: HC as printed runs into CH1
B5: M11-G12 (Fab, V domains shown)
VH: EVQLLESGGGLVQPGGSLRLSCAASGFTFSQYPMNWVRQAPGKGLEWVSSISSSGGFTTYADSVKGRFTISRDNSKNTLYLQMNSLRAEDTAVYYCAREEQQGGFDYWGQGTLVTVSS
VL: DIQMTQSPSSLSAFVGDRVSITCRASQTISVYVNWYQHKSGQAPKLLIYGASSLQSGVPSRFSGSGSGTDFTLTISSLQPEDFATYFCQQSYSIPFTFGGGTDVQIR
notes: HC as printed runs into CH1
B6: M12-D10 (Fab, V domains shown)
VH: EVQLLESGGGLVQPGGSLRLSCAASGFTFSNYPMDWVRQAPGKGLEWVSSISSSGGWTNYADSVKGRFTISRDNSKNTLYLQMNSLRAEDTAVYYCATDTSGSYLGFDYWGQGTLVTVSS
VL: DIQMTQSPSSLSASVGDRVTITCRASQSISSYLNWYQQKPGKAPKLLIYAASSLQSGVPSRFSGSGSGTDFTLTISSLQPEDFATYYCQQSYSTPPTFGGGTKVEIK
notes: HC as printed runs into CH1
B7: M9-H04 (Fab, V domains shown)
VH: EVQLLESGGGLVQPGGSLRLSCAASGFTFSAYTMWWVRQAPGKGLEWVSSIWPSGGSTFYADSVKGRFTISRDNSKNTLYLQMNSLRAEDTAVYYCARTYDSSAGEVDYWGQGTLVTVSS
VL: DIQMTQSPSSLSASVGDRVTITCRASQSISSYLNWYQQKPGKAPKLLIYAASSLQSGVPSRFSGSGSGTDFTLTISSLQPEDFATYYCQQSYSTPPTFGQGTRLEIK
notes: HC as printed runs into CH1
B8: M11-G09 (Fab, V domains shown)
VH: EVQLLESGGGLVQPGGSLRLSCAASGFTFSLYNMTWVRQAPGKGLEWVSYIYPSGGGTHYADSVKGRFTISRDNSKNTLYLQMNSLRAEDTAVYYCARDTGFWSADAFDIWGQGTMVTVSS
VL: DIQMTQSPSSLSASVGDRVTITCRTSQGINHYLNWYQQKPGKAPKILVFAASELQTGVPSRFSGTGSGTSYTLTITSLQPEDVATYYCQQTYTSPYTFGQGTKLEVK
notes: HC as printed runs into CH1
B9: M12-B04 (Fab, V domains shown)
VH: EVQLLESGGGLVQPGGSLRLSCAASGFTFSLYSMYWVRQAPGKGLEWVSRIRPSGGGTVYADSVKGRFTISRDNSKNTLYLQMNSLRAEDTAVYYCARDPLYSSGDVWGQGTTVTVSS
VL: DIQMTQSPSSLSASVGDRVTITCRASQGIRNDLGWYQHKPGKAPKLLIYAASILQSGVPSRFSGTASGTDFTLTISSLQPEDFATYFCLQDYEYPLTFGGGTKLDIK
notes: HC as printed runs into CH1
B10: M10-A03 (Fab, V domains shown)
VH: EVQLLESGGGLVQPGGSLRLSCAASGFTFSPYPMQWVRQAPGKGLEWVSSISSSGGMTEYADSVKGRFTISRDNSKNTLYLQMNSLRAEDTAVYYCARDDYGGKGGAFDIWGQGTMVTVSS
VL: DIQMTQSPSSLSASVGDRVTITCRASQRISFYLNWFQQKPGKAPNLLIYGASSLQSGVPSRFSGSGSGTDFTLTISSLQPKDFGTYYCQQTFSTPNTFGQGTKLEIK
notes: HC as printed runs into CH1
B11: M11-E05 (Fab, V domains shown)
VH: EVQLLESGGGLVQPGGSLRLSCAASGFTFSWYTMGWVRQAPGKGLEWVSWIYFGGLTTYADSVKGRFTISRDNSKNTLYLQMNSLRAEDTAVYYCARLGGPLDAFDIWGQGTMVTVSS
VL: DIQMTQSPSSLSASVGDTVTITCRTSQTINNYLNWYQQRPGEAPKVLIYATHTLESGVPSRFSGSGSGTDFTLTIGSLQPEDFATYYCQQSFAFPYTFGQGTKVEIT
notes: HC as printed runs into CH1
B12: M10-A12 (Fab, V domains shown)
VH: EVQLLESGGGLVQPGGSLRLSCAASGFTFSLYLMHWVRQAPGKGLEWVSSIYSSGGFTTYADSVKGRFTISRDNSKNTLYLQMNSLRAEDTAVYYCARDTDYGMDVWGQGTTVTVSS
VL: DIQMTQSPLSLSAFVGDRVTITCRASRDISVYLNWYQLKSGKAPKLLIYGASSLQSGVPSRFSGSGSGTDFTLTITSLQPEDFATYYCQQSYSIPFTFGGGTKVETK
notes: HC as printed runs into CH1
B13: M11-E06 (Fab, V domains shown)
VH: EVQLLESGGGLVQPGGSLRLSCAASGFTFSQYAMHWVRQAPGKGLEWVSSIYPSGGFTLYADSVKGRFTISRDNSKNTLYLQMNSLRAEDTAMYYCARGGWLAGGELLNWGQGTLVTVSS
VL: DIQMTQSPSSLSASIGDRVTISCRASRGIGTYLNWYQQHAGKAPKLLIRAASSLETGVPPRFSGSGSGTDFTLTISSLQSDDFATYYCQESFTNVYNFGQGTKLEIK
notes: HC as printed runs into CH1
B14: M10-C11 (Fab, V domains shown)
VH: EVQLLESGGGLVQPGGSLRLSCAASGFTFSMYPMMWVRQAPGKGLEWVSYISPSGGMTDYADSVKGRFTISRDNSKNTLYLQMNSLRAEDMAVYYCARVAGSSDAFDIWGQGTMVTVSS
VL: DIQMTQSPSSLSASVGDRVTITCRASQSISIYLNWYQQKPEKAPKLLIFAASTLQSGVPSRFSGSGSGTDFTLTISNLQPEDFATYYCQQSHSIPPTFGLGTKVEVK
notes: HC as printed runs into CH1
B15: M11-E04 (Fab, V domains shown)
VH: EVQLLESGGGLVQPGGSLRLSCAASGFTFSMYHMNWVRQAPGKGLEWVSGIVSSGGVTFYADSVKGRFTISRDNSKNTLYLQMNSLRAEDTAVYYCARITTVTTGGAFDIWGQGTMVTVSS
VL: DIQMTQSPSSLSASVGDRVTITCRASQSISIYLTWYQHRPGKAPNLLIYGAATLQTGVPSRFSGSGSGTDFTLTIRGLQPEDFATYYCQQTFSLPRTFGQGTKLEIK
notes: HC as printed runs into CH1
B16: M12-C09 (Fab, V domains shown)
VH: EVQLLESGGGLVQPGGSLRLSCAASGFTFSSYAMVWVRQAPGKGLEWVSSIGSSGGFTLYADSVKGRFTISRDNSKNTLYLQMNSLRAEDTAVYYCASMNLGGGDAFDIWGQGTMVTVSS
VL: DIQMTQSPSSLSASVGDRVTITCRASQSIGIYLNWYHQKPGKAPNLLIYGASSLQSGVPSRFSGSGSGTDFTLTISSLQPGDFATYYCQHSYSTPFTFGGGTKVEIK
notes: HC as printed runs into CH1
B17: M10-G09 (Fab, V domains shown)
VH: EVQLLESGGGLVQPGGSLRLSCAASGFTFSQYGMQWVRQAPGKGLEWVSSIRSSGGATRYADSVKGRFTISRDNSKNTLYLQMNSLRAEDTAVYYCARDGYYDSSGYPDYWGQGTLVTVSS
VL: DIQMTQSPSSLSASVGDSVTITCRASQSISGYINWYQQKAGKAPKLLIYAASSLQSGVPSRFSGSGSGTHFTLTISSLQPEDFATYYCQQYVSYPFTFGPGTKVDIK
notes: HC as printed runs into CH1
B18: M10-E06 (Fab, V domains shown)
VH: EVQLLESGGGLVQPGGSLRLSCAASGFTFSLYRMFWVRQAPGKGLEWVSSIWSSGGPTMYADSVKGRFTISRDNSKNTLYLQMNSLRAEDTAVYYCAREYPSTYYFDYWGQGTLVTVSS
VL: DIQMTQSPSSLSASVGDRVTITCRASQSISTYLNWYQQKPGKAPKLLIYGASSLQSGVPSRFSGSGSGTDFTLTISSLQPEDFTIYYCQQSYSDPYTFGQGTKLDIK
notes: HC as printed runs into CH1
B19: M12-A08 (Fab, V domains shown)
VH: EVQLLESGGGLVQPGGSLRLSCAASGFTFSWYYMGWVRQAPGKGLEWVSWIVSSGGLTLYADSVKGRFTISRDNSKNTLYLQMNSLRAEDTAMYYCARTTVTTGDAFDIWGQGTMVTVSS
VL: DIQMTQSPSSLSASVGDRVTITCRASQSISRYLNWYQQKPGKAPKLLIYAASTLETGVPSRFSGSGSGTDFTLTITTLQPEDFVIYYCQQSYSTPYTFGQGTKLEIK
notes: HC as printed runs into CH1
B20: M10-D11 (Fab, V domains shown)
VH: EVQLLESGGGLVQPGGSLRLSCAASGFTFSAYPMNWVRQAPGKGLEWVSRISSSGGNTSYADSVKGRFTISRDNSKNTLYLQMNSLRAEDTAVYYCALGYLGYWGQGTLVTVSS
VL: not shown
notes: HC as printed runs into CH1
B21: M10-F09 (Fab, V domains shown)
VH: EVQLLESGGGLVQPGGSLRLSCAASGFTFSNYDMMWVRQAPGKGLEWVSYISPSGGFTRYADSVKGRFTISRDNSKNTLYLQMNSLRAEDTATYYCAKDIYYYNWGPSHYFDSWGQGTLVTVSS
VL: DIQMTQSPSSLSASVGDRVTITCRASQTIDDDLIWYQQKPGRAPKLLIYAASSLQSGVPSRFSGSGSGTDFTLTITSLQPEDFATYYCQQSYNIPRTFGQGTKLESK
notes: HC as printed runs into CH1
B22: M11-E01 (Fab, V domains shown)
VH: EVQLLESGGGLVQPGGSLRLSCAASGFTFSTYEMYWVRQAPGKGLEWVSGIGSSGGMTMYADSVKGRFTISRDNSKNTLYLQMNSLRAEDTAMYYCAREQPGIAALQFWGQGTLVTVSS
VL: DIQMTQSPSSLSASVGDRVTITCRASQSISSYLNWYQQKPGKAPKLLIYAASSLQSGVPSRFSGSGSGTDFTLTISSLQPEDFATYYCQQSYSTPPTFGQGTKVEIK
notes: HC as printed runs into CH1

The target of the experiment is T1, human plasma kallikrein (human, UniProt P03952 20-390; P03952 391-638).
T1 construct: also called pKal; Human pKal
T1 sequence (P03952 20-390, chain 1 of 2): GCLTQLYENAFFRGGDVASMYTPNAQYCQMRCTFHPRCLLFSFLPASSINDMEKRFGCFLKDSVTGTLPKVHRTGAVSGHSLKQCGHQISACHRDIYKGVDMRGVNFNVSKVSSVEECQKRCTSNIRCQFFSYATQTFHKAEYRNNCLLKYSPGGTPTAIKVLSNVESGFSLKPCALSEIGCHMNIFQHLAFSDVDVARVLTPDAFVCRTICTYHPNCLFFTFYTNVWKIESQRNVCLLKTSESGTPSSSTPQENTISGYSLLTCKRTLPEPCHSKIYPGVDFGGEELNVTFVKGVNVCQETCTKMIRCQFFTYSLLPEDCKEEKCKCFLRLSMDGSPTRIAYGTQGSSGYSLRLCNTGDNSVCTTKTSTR
T1 sequence (P03952 391-638, chain 2 of 2): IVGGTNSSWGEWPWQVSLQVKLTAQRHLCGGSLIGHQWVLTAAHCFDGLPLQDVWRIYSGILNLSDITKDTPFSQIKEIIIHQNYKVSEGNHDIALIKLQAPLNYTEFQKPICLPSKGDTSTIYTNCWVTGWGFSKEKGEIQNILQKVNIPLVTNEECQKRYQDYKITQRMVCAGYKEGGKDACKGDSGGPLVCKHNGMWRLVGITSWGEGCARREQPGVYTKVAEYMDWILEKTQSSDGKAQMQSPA
Briefly: ELISA, biotinylated pKal signal over streptavidin background. An excerpt:
Abbreviations used: “T/B” is the ELISA signal obtained using of the “target” (biotinylated plasma kallikrein) divided by the ELISA signal of the “background” (streptavidin); both of which were coated on microtiter plates, “nd” is not determined. The symbol “q” refers to the amber suppressible stop codon (TAG), which is translated as glutamine (Q) in strains of E. coli such as the TG1 cells that were used to express the Fab fragments.
In the case of B1, the “ELISA (T/B)” value came out at 25 T/B.
The same measure for B2: 14.1 T/B; for B3: 48 T/B; for B4: 8.3 T/B.
On to B5, for which the “ELISA (T/B)” value came to 4.9 T/B.
The same measure for B6: 9.9 T/B.
With B7 the figure was 16.1 T/B; with B8, 23.6 T/B.
In the case of B9, the “ELISA (T/B)” value was determined as 18 T/B.
Take B10: the “ELISA (T/B)” value is 33.7 T/B.
With B11 the figure was 41.4 T/B.
Turning to B12, the “ELISA (T/B)” value came out at 20.8 T/B.
The same measure for B13: 12.6 T/B; for B14: 5.3 T/B.
Take B15: the “ELISA (T/B)” value stood at 43.2 T/B.
Regarding B16, the “ELISA (T/B)” value is 7 T/B.
Take B17: the “ELISA (T/B)” value turned out to be 7.1 T/B.
The same measure for B18: 32.8 T/B; for B19: 40.4 T/B.
With B20 the figure was 6.4 T/B; with B21, 4.8 T/B; with B22, 11.7 T/B.
